Source: patent publication US20180258163A1 (Chugai, published 2018)

T1: soluble human FcγRIIb (human, UniProt P31994 43-217, limits assumed)
T1 construct: soluble His-tagged form; also called hFcγRIIb
T1 sequence (looked up): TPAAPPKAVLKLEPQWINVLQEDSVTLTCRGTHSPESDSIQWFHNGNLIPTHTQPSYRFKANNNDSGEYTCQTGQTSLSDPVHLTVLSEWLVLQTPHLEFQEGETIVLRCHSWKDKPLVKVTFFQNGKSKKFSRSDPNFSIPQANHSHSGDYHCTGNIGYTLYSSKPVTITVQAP


Each binder was assayed against T1, soluble human FcγRIIb (assay: SPR, Ab-IgE complex over captured hFcγRIIb, pH 7.4, 25C).
Description: (§1) Regarding the produced Fc region variant-containing antibodies, binding assays between soluble human FcγRIIb and antigen-antibody complexes were performed using BIACORE T200 (GE Healthcare). Soluble human FcγRIIb (NCBI accession NM_004001.3) was produced in the form of a His-tagged molecule by a method known in the art. An appropriate amount of an anti-His antibody was fixed onto Sensor chip CM5 (GE Healthcare) by the amine coupling method using a His capture kit (GE Healthcare) to capture human FcγRIIb. Next, an antibody-antigen complex and a running buffer (as a reference solution) were injected, and interaction was allowed to take place with the human FcγRIIb captured onto the sensor chip. 20 mM N-(2-Acetamido)-2-aminoethanesulfonic acid, 150 mM NaCl, 1.2 mM CaCl₂, and 0.05% (w/v) Tween 20 at pH 7.4 was used as the running buffer, and the respective buffer was also used to dilute the soluble human FcγRIIb. To regenerate the sensor chip, 10 mM glycine-HCl at pH 1.5 was used. All measurements were carried out at 25° C. Analyses were performed based on binding (RU) calculated from sensorgrams obtained by the measurements, and relative values when the binding amount of Ab1H/Ab1L (original Ab1) was defined as 1.00 are shown. To calculate the parameters, the BIACORE T100 Evaluation Software (GE Healthcare) was used.

Binder	BIACORE fold (relative binding, original Ab1=1.00) [fold]
Ab1H/Ab1L035 (antibody, human IgG1, kappa, copies: 2 + 2) heavy: not shown light: DIQMTQSPSSVSASVGDRVTITCRASRSIYSGLAWYQQKPGQPPKLLIYDHSTLASGVPSRFSGRGSGREYALKISRLQPEDFATYYCQHADYAHHSDNVFGGGTKVEIKRTVAAPSVFIFPPSDEQLKSGTASVVCLLNNFYPREAKVQWKVDNALQSGNSQESVTEQDSKDSTYSLSSTLTLSKADYEKHKVYACEVTHQGLSSPVTKSFNRGEC	1.49
Ab1H/Ab1L038 (antibody, human IgG1, kappa, copies: 2 + 2) heavy: not shown light: DIQMTQSPSSVSASVGDRVTITCRASRSIYSGLAWYQQKPGQPPKLLIYDHRTLARGVPSRFSGSGSGTEYALKISRLQPEDFATYYCQHADYAHHSDNVFGGGTKVEIKRTVAAPSVFIFPPSDEQLKSGTASVVCLLNNFYPREAKVQWKVDNALQSGNSQESVTEQDSKDSTYSLSSTLTLSKADYEKHKVYACEVTHQGLSSPVTKSFNRGEC	1.47
Ab1H/Ab1L036 (antibody, human IgG1, kappa, copies: 2 + 2) heavy: not shown light: DIQMTQSPSSVSASVGDRVTITCRASRSIYSGLAWYQQKPGQPPKLLIYDHSTLASGVPSRFSGRGSGREYALTIRSLKPEDFATYYCQHADYAHHSDNVFGGGTKVEIKRTVAAPSVFIFPPSDEQLKSGTASVVCLLNNFYPREAKVQWKVDNALQSGNSQESVTEQDSKDSTYSLSSTLTLSKADYEKHKVYACEVTHQGLSSPVTKSFNRGEC	1.48
Ab1H/Ab1L037 (antibody, human IgG1, kappa, copies: 2 + 2) heavy: not shown light: DIQMTQSPSSVSASVGDRVTITCRASRSIYSGLAWYQQKPRKPPKLLIYDHSTLASGVPSRFSGSGSGTEYALKISRLQPEDFATYYCQHADYAHHSDNVFGGGTKVEIKRTVAAPSVFIFPPSDEQLKSGTASVVCLLNNFYPREAKVQWKVDNALQSGNSQESVTEQDSKDSTYSLSSTLTLSKADYEKHKVYACEVTHQGLSSPVTKSFNRGEC	1.38

Further lines, results first:

BIACORE fold (relative binding, original Ab1=1.00) [fold]	Binder
0.98	Ab1H/Ab1L062 (antibody, human IgG1, kappa, copies: 2 + 2) heavy: not shown light: DIQMTQSPSSVSASVGDRVTITCQASESIYSGLAWYQQKPGQPPKLLIYDHSTLASGVPSRFSGRGSGTEYALTISSLKPEDFATYYCQHADYAHHSDNVFGGGTKVEIKRTVAAPSVFIFPPSDEQLKSGTASVVCLLNNFYPREAKVQWKVDNALQSGNSQESVTEQDSKDSTYSLSSTLTLSKADYEKHKVYACEVTHQGLSSPVTKSFNRGEC
1.35	Ab1H/Ab1L041 (antibody, human IgG1, kappa, copies: 2 + 2) heavy: not shown light: DIQMTQSPSSVSASVGDRVTITCRASRSIYSGLAWYQQKPGQPPKLLIYDHRTLARGVPSRFSGSGSGTEYALTIRSLKPEDFATYYCQHADYAHHSDNVFGGGTKVEIKRTVAAPSVFIFPPSDEQLKSGTASVVCLLNNFYPREAKVQWKVDNALQSGNSQESVTEQDSKDSTYSLSSTLTLSKADYEKHKVYACEVTHQGLSSPVTKSFNRGEC
1.02	Ab1H/Ab1L061 (antibody, human IgG1, kappa, copies: 2 + 2) heavy: not shown light: DIQMTQSPSSVSASVGDRVTITCQASESIYSGLAWYQQKPGKPPKLLIYDHSTLASGVPSRFSGSGSGTEYALTIRSLQPEDFATYYCQHADYAHHSDNVFGGGTKVEIKRTVAAPSVFIFPPSDEQLKSGTASVVCLLNNFYPREAKVQWKVDNALQSGNSQESVTEQDSKDSTYSLSSTLTLSKADYEKHKVYACEVTHQGLSSPVTKSFNRGEC
0.99	Ab1H/Ab1L039 (antibody, human IgG1, kappa, copies: 2 + 2) heavy: not shown light: DIQMTQSPSSVSASVGDRVTITCRASRSIYSGLAWYQQKPGQPPKLLIYDHSTLASGVPSRFSGSGSGTEYALKIRRLKPEDFATYYCQHADYAHHSDNVFGGGTKVEIKRTVAAPSVFIFPPSDEQLKSGTASVVCLLNNFYPREAKVQWKVDNALQSGNSQESVTEQDSKDSTYSLSSTLTLSKADYEKHKVYACEVTHQGLSSPVTKSFNRGEC
1.23	Ab1H/Ab1L040 (antibody, human IgG1, kappa, copies: 2 + 2) heavy: not shown light: DIQMTQSPSSVSASVGDRVTITCRASRSIYSGLAWYQQKPRKPPKLLIYDHSTLASGVPSRFSGSGSGTEYALTIRSLKPEDFATYYCQHADYAHHSDNVFGGGTKVEIKRTVAAPSVFIFPPSDEQLKSGTASVVCLLNNFYPREAKVQWKVDNALQSGNSQESVTEQDSKDSTYSLSSTLTLSKADYEKHKVYACEVTHQGLSSPVTKSFNRGEC

Biological target: T1, soluble human FcγRIIb
Assay: as above
Remark: another data set of the same source
Description: as §1

Binder	BIACORE fold (relative binding, original Ab1=1.00) [fold]
Ab1H005m/Ab1L (antibody, human IgG1, kappa, name in Kabat numbering, copies: 2 + 2) heavy: not shown light: DIQMTQSPSSVSASVGDRVTITCQASESIYSGLAWYQQKPGQPPKLLIYDHSTLASGVPSRFSGSGSGTEYALTISSLQPEDFATYYCQHADYAHHSDNVFGGGTKVEIKRTVAAPSVFIFPPSDEQLKSGTASVVCLLNNFYPREAKVQWKVDNALQSGNSQESVTEQDSKDSTYSLSSTLTLSKADYEKHKVYACEVTHQGLSSPVTKSFNRGEC	0.92
Ab1H014/Ab1L (antibody, human IgG1, kappa, name in Kabat numbering, copies: 2 + 2) heavy: not shown light: DIQMTQSPSSVSASVGDRVTITCQASESIYSGLAWYQQKPGQPPKLLIYDHSTLASGVPSRFSGSGSGTEYALTISSLQPEDFATYYCQHADYAHHSDNVFGGGTKVEIKRTVAAPSVFIFPPSDEQLKSGTASVVCLLNNFYPREAKVQWKVDNALQSGNSQESVTEQDSKDSTYSLSSTLTLSKADYEKHKVYACEVTHQGLSSPVTKSFNRGEC	0.91
Ab1H016/Ab1L (antibody, human IgG1, kappa, name in Kabat numbering, copies: 2 + 2) heavy: not shown light: DIQMTQSPSSVSASVGDRVTITCQASESIYSGLAWYQQKPGQPPKLLIYDHSTLASGVPSRFSGSGSGTEYALTISSLQPEDFATYYCQHADYAHHSDNVFGGGTKVEIKRTVAAPSVFIFPPSDEQLKSGTASVVCLLNNFYPREAKVQWKVDNALQSGNSQESVTEQDSKDSTYSLSSTLTLSKADYEKHKVYACEVTHQGLSSPVTKSFNRGEC	1.04
Ab1H012/Ab1L (antibody, human IgG1, kappa, name in Kabat numbering, copies: 2 + 2) heavy: not shown light: DIQMTQSPSSVSASVGDRVTITCQASESIYSGLAWYQQKPGQPPKLLIYDHSTLASGVPSRFSGSGSGTEYALTISSLQPEDFATYYCQHADYAHHSDNVFGGGTKVEIKRTVAAPSVFIFPPSDEQLKSGTASVVCLLNNFYPREAKVQWKVDNALQSGNSQESVTEQDSKDSTYSLSSTLTLSKADYEKHKVYACEVTHQGLSSPVTKSFNRGEC	0.96
Ab1H010/Ab1L (antibody, human IgG1, kappa, name in Kabat numbering, copies: 2 + 2) heavy: not shown light: DIQMTQSPSSVSASVGDRVTITCQASESIYSGLAWYQQKPGQPPKLLIYDHSTLASGVPSRFSGSGSGTEYALTISSLQPEDFATYYCQHADYAHHSDNVFGGGTKVEIKRTVAAPSVFIFPPSDEQLKSGTASVVCLLNNFYPREAKVQWKVDNALQSGNSQESVTEQDSKDSTYSLSSTLTLSKADYEKHKVYACEVTHQGLSSPVTKSFNRGEC	1.05
Ab1H013/Ab1L (antibody, human IgG1, kappa, name in Kabat numbering, copies: 2 + 2) heavy: not shown light: DIQMTQSPSSVSASVGDRVTITCQASESIYSGLAWYQQKPGQPPKLLIYDHSTLASGVPSRFSGSGSGTEYALTISSLQPEDFATYYCQHADYAHHSDNVFGGGTKVEIKRTVAAPSVFIFPPSDEQLKSGTASVVCLLNNFYPREAKVQWKVDNALQSGNSQESVTEQDSKDSTYSLSSTLTLSKADYEKHKVYACEVTHQGLSSPVTKSFNRGEC	1.02
